Patent US20170088605A1

Key:
[1] = target: BKV serotype III chimeric infectious virus (VP1 of isolate AS) (BK virus serotype III)
[2] = target: BKV serotype IV chimeric infectious virus (VP1 of strain ITA-4) (BK virus serotype IV)
[3] = target: BKV serotype I infectious virus (VP1) (BK virus serotype I) (UniProt P03088)
[4] = target: BKV serotype II chimeric infectious virus (VP1 of isolate SB) (BK virus serotype II)

Chain of BKV serotype I infectious virus (VP1) (BK virus serotype I) (P03088 whole entry): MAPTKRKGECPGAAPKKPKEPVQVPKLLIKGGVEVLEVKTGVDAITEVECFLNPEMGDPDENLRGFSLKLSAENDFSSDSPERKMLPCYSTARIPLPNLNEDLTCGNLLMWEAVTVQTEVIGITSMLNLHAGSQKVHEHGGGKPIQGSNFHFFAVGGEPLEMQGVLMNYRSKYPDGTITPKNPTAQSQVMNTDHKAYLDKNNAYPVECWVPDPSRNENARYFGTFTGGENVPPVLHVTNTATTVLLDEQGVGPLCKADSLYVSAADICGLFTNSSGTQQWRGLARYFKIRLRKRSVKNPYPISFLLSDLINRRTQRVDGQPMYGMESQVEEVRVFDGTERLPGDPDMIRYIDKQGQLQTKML

B1: P46F4 (antibody, V domains shown)
VH: QVQLQESGPGLVKPSQTLSLTCTVSGGSISNGGYYWSWIRLHPGKGLEWIGCIHYSGGTYYNPSLKSRVTVSLDTSKNQFSLNLISVTAADTAIYFCARALIAAPGISDWFDPWGQGTLVTVSS
VL: QSVLTQPPSVSAAPGQKVTISCSGSNSNVGHNYVSWYQQLPGTAPKLLIYDNNKRPSGIPDRFSGSKSGTSATLGITGLQTGDEADYYCGTWDSSLSAGVFGGGTKVTVLG
[1]
  neutralization EC50: > 100 µg/mL
  neutralization EC90: > 100 µg/mL
[2]
  neutralization EC50: > 100 µg/mL
  neutralization EC90: > 100 µg/mL
[3]
  neutralization EC50: 0.004 µg/mL
  neutralization EC90: 0.29 µg/mL
[4]
  neutralization EC50: > 100 µg/mL
  neutralization EC90: > 100 µg/mL
